Reference: PMC12350838

How the values were obtained:
[1] = target: BoDV-1 L-P complex (one L-protein with a tetramer of P-protein) (Borna disease virus 1 (BoDV-1)); assay: cryo-EM structure; Sample 2, reaction conditions: L-P complex with 25 μM 23mer template RNA, 20 μM triphosphorylated 6mer primer, 1 mM SAM, 1 mM each NTP, 1 h on ice, diluted to 0.4 mg/ml; single particle analysis, re-extraction in a larger box and 2D classification
[2] = target: BoDV-1 L-P complex (one L-protein with a tetramer of P-protein) (Borna disease virus 1 (BoDV-1)); assay: cryo-EM structure; Sample 1, RNA-free: co-expressed and co-purified L-P complex used immediately after elution, 0.33 mg/ml on grids; single particle analysis with 2D and 3D classification
[3] = target: Borna disease virus 1 (BoDV-1) large protein (L-protein) (Borna disease virus 1 (BoDV-1)); assay: as above
[4] = target: Borna disease virus 1 (BoDV-1) phosphoprotein (P-protein) (Borna disease virus 1 (BoDV-1)); assay: as above

Substance	percent of particles as dimers [1] [%]	stoichiometry N [1]	percent of particles as tetramers [2] [%]	stoichiometry N [2]	stoichiometry N (P-protein chains per L-protein) [3]	stoichiometry N [4]
BoDV-1 L-P complex (one L-protein with a tetramer of P-protein)	6	2	0.2	4		
Borna disease virus 1 (BoDV-1) phosphoprotein (P-protein) (natural protein)					4	4
